In paper PMC8730730 one finds Kd data, which are given here for 1 substance.

The target of the assay is enzymatically deglycosylated clinical-grade rshACE2 (human) (UniProt Q9BYF1). Description: BLI. A general note: Biolayer interferometry detects binding as a change in optical thickness at a sensor tip.
UniProt Q9BYF1, sequence (Q9BYF1 18-740 limits assumed): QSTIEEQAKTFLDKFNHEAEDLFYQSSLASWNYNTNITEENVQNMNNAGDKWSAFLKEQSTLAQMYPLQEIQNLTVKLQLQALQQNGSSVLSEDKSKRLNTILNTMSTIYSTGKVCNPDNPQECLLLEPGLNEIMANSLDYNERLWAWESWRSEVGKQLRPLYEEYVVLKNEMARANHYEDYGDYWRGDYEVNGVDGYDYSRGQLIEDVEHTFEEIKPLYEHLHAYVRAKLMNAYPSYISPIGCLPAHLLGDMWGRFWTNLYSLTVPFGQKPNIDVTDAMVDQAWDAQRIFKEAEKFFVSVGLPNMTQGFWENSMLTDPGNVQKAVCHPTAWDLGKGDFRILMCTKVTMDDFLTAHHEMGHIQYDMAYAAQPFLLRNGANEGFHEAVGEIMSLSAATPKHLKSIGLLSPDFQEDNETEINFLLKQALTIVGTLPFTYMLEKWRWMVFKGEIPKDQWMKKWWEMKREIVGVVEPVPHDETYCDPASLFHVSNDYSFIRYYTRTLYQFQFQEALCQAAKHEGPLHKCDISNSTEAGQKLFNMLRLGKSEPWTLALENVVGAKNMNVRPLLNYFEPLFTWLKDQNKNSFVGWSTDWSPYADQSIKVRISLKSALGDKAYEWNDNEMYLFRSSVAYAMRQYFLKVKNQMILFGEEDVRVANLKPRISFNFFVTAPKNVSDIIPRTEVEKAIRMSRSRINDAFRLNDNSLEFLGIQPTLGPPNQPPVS

Turning to “SARS-CoV-2 Spike receptor binding domain (residues R319-F541) (from UniProt P0DTC2 319-541) (domain or fragment)”, the Kd (in general, the constant that tells how readily two partners part at equilibrium) was 5.1 nM.
